Experimental data published in the Human Domainome abundance scans (Beltran et al. 2025).
± gives the uncertainty stated by the source.

B1: POU domain, class 4, transcription factor 3, residues 185 to 256; numbered along this chain, Q15319 (parent)
chain: RELEAFAERFKQRRIKLGVTQADVGAALANLKIPGVGSLSQSTICRFESLTLSHNNMIALKPVLQAWLEEAE

Variants of: B1
Assay: abundance fitness (aPCA) (normalised: wild type 0, dead -1); higher = more abundant; growth selection in yeast, the domain comes from the species named
Conditions: Homo sapiens

With P62C as the variant, how does the abundance fitness read?
Its abundance fitness is -0.565 ± 0.053.

For P62F, which abundance fitness is on record?
Its abundance fitness is -0.461 ± 0.058.

For P62Q, which abundance fitness is on record?
The abundance fitness was -0.393 ± 0.049.

Which abundance fitness does the source give for P62M here?
Its abundance fitness is -0.56 ± 0.046.

Which abundance fitness does the source give for Q65V here?
Its abundance fitness is -0.085 ± 0.21.

With Q65C as the variant, how does the abundance fitness read?
The abundance fitness was -0.1 ± 0.21.

Which abundance fitness does the source give for Q65D here?
Its abundance fitness is -0.065 ± 0.15.

Which abundance fitness does the source give for K61L here?
The abundance fitness was -0.217 ± 0.044.

For K61F, which abundance fitness is on record?
Its abundance fitness is -0.36 ± 0.055.

Which abundance fitness does the source give for A5E here?
Its abundance fitness is -0.155 ± 0.26.

With A5C as the variant, how does the abundance fitness read?
Its abundance fitness is -0.552 ± 0.3.

For A5R, which abundance fitness is on record?
The abundance fitness was -0.121 ± 0.19.

For E72S, which abundance fitness is on record?
The abundance fitness was -0.153 ± 0.028.

For E72W, which abundance fitness is on record?
Its abundance fitness is -0.325 ± 0.037.

With A7L as the variant, how does the abundance fitness read?
Its abundance fitness is -0.581 ± 0.034.

With A7W as the variant, how does the abundance fitness read?
Its abundance fitness is -0.817 ± 0.049.

Which abundance fitness does the source give for A7I here?
The abundance fitness was -0.083 ± 0.2.

For A7C, which abundance fitness is on record?
The abundance fitness was -0.124 ± 0.055.

For A7E, which abundance fitness is on record?
Its abundance fitness is -0.893 ± 0.082.

Which abundance fitness does the source give for S42N here?
The abundance fitness was 0.06 ± 0.4.

For S42P, which abundance fitness is on record?
The abundance fitness was -0.428 ± 0.07.

For L3I, which abundance fitness is on record?
The abundance fitness was 0.065 ± 0.07.

With L3Y as the variant, how does the abundance fitness read?
Its abundance fitness is -0.192 ± 0.1.

For R14T, which abundance fitness is on record?
The abundance fitness was -1.15 ± 0.18.

Which abundance fitness does the source give for R14Q here?
The abundance fitness was -0.45 ± 0.13.

Which abundance fitness does the source give for R14I here?
Its abundance fitness is -0.656 ± 0.19.

Which abundance fitness does the source give for R14D here?
The abundance fitness was -0.454 ± 0.16.

For L39W, which abundance fitness is on record?
The abundance fitness was -0.596 ± 0.37.

Which abundance fitness does the source give for L39P here?
The abundance fitness was 0.054 ± 0.3.

Which abundance fitness does the source give for A27R here?
The abundance fitness was -0.384 ± 0.14.

With W67P as the variant, how does the abundance fitness read?
Its abundance fitness is -0.618 ± 0.1.

Which abundance fitness does the source give for W67Q here?
The abundance fitness was -1.02 ± 0.24.

Which abundance fitness does the source give for W67Y here?
The abundance fitness was -0.09 ± 0.087.

For Q21L, which abundance fitness is on record?
Its abundance fitness is -0.192 ± 0.1.

With Q21R as the variant, how does the abundance fitness read?
The abundance fitness was -0.31 ± 0.17.

With Q21M as the variant, how does the abundance fitness read?
Its abundance fitness is -0.502 ± 0.17.

For Q21E, which abundance fitness is on record?
Its abundance fitness is 0.081 ± 0.11.

With E69M as the variant, how does the abundance fitness read?
The abundance fitness was -0.041 ± 0.048.

Which abundance fitness does the source give for E69G here?
The abundance fitness was -0.194 ± 0.049.

Which abundance fitness does the source give for E69Q here?
Its abundance fitness is -0.091 ± 0.061.

With M57T as the variant, how does the abundance fitness read?
Its abundance fitness is -0.174 ± 0.096.

Which abundance fitness does the source give for M57V here?
The abundance fitness was -0.259 ± 0.19.

For S40Q, which abundance fitness is on record?
Its abundance fitness is -0.287 ± 0.15.

Which abundance fitness does the source give for S40N here?
Its abundance fitness is -0.183 ± 0.2.

With S40F as the variant, how does the abundance fitness read?
The abundance fitness was -0.468 ± 0.11.

Which abundance fitness does the source give for S40R here?
Its abundance fitness is -0.175 ± 0.069.

For S40H, which abundance fitness is on record?
Its abundance fitness is -0.013 ± 0.22.

For S40Y, which abundance fitness is on record?
Its abundance fitness is -0.422 ± 0.079.

For S40V, which abundance fitness is on record?
The abundance fitness was -0.354 ± 0.08.

With S40P as the variant, how does the abundance fitness read?
The abundance fitness was -0.154 ± 0.064.

Which abundance fitness does the source give for V19G here?
Its abundance fitness is -0.391 ± 0.25.

Which abundance fitness does the source give for V19Y here?
The abundance fitness was -0.01 ± 0.066.

For R46H, which abundance fitness is on record?
The abundance fitness was -0.056 ± 0.091.

Which abundance fitness does the source give for R46A here?
The abundance fitness was 0.031 ± 0.061.

With R46S as the variant, how does the abundance fitness read?
Its abundance fitness is 0.024 ± 0.06.

With R46Y as the variant, how does the abundance fitness read?
Its abundance fitness is -0.106 ± 0.18.

With V63F as the variant, how does the abundance fitness read?
Its abundance fitness is -0.181 ± 0.15.

Which abundance fitness does the source give for G35Y here?
The abundance fitness was -0.26 ± 0.074.

For L64M, which abundance fitness is on record?
The abundance fitness was -0.17 ± 0.034.

With L64F as the variant, how does the abundance fitness read?
Its abundance fitness is -0.412 ± 0.06.

Which abundance fitness does the source give for L64I here?
The abundance fitness was -0.402 ± 0.098.

With L64V as the variant, how does the abundance fitness read?
The abundance fitness was -0.425 ± 0.024.

For V24K, which abundance fitness is on record?
Its abundance fitness is -0.937 ± 0.087.

For V24H, which abundance fitness is on record?
Its abundance fitness is -0.917 ± 0.11.

Which abundance fitness does the source give for V24E here?
Its abundance fitness is -1.04 ± 0.23.

For V24Y, which abundance fitness is on record?
Its abundance fitness is -0.962 ± 0.11.

For V24A, which abundance fitness is on record?
Its abundance fitness is -0.142 ± 0.052.

Which abundance fitness does the source give for G37K here?
Its abundance fitness is -0.018 ± 0.036.

For G37L, which abundance fitness is on record?
Its abundance fitness is -0.172 ± 0.11.

Which abundance fitness does the source give for G37H here?
Its abundance fitness is 0.011 ± 0.26.

Which abundance fitness does the source give for T51G here?
The abundance fitness was -0.174 ± 0.077.

Which abundance fitness does the source give for T51R here?
Its abundance fitness is 0.028 ± 0.058.

With S49G as the variant, how does the abundance fitness read?
Its abundance fitness is -0.138 ± 0.057.

Which abundance fitness does the source give for S49V here?
Its abundance fitness is -0.718 ± 0.11.

Which abundance fitness does the source give for S49Y here?
Its abundance fitness is -0.209 ± 0.15.

Which abundance fitness does the source give for S49H here?
The abundance fitness was -0.033 ± 0.096.

For S49F, which abundance fitness is on record?
Its abundance fitness is -0.515 ± 0.11.

For F10W, which abundance fitness is on record?
The abundance fitness was -0.287 ± 0.09.

Which abundance fitness does the source give for V36F here?
Its abundance fitness is -0.043 ± 0.071.

With V36M as the variant, how does the abundance fitness read?
The abundance fitness was 0.044 ± 0.1.

Which abundance fitness does the source give for V36P here?
The abundance fitness was -0.398 ± 0.06.

Which abundance fitness does the source give for V36A here?
The abundance fitness was -0.089 ± 0.1.

Which abundance fitness does the source give for V36G here?
The abundance fitness was -0.242 ± 0.2.

For V36H, which abundance fitness is on record?
The abundance fitness was -0.072 ± 0.093.
